Target: the activated zmTrpA variants (Zea mays)
Experiment: activity titration

Chain of tryptophan synthase β-subunit TrpB1 from Zea mays (P43283 whole entry): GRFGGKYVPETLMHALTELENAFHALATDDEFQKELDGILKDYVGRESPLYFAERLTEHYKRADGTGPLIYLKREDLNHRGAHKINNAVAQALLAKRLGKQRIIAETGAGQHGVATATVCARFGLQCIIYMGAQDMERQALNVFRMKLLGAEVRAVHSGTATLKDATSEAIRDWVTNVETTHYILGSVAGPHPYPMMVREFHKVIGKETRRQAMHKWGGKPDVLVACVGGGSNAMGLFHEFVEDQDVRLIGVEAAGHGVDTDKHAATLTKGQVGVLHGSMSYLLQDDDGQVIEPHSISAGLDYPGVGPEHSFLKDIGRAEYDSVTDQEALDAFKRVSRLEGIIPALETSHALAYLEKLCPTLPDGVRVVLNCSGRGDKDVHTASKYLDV

Q: How did the Kd turn out when “tryptophan synthase β-subunit TrpB1 from Zea mays (from UniProt P43283 1-389) (enzyme)” was run?
A: The Kd was 300 to 700 nM.

Reference: PMC7293203
